Measurements from the Immune Epitope Database (IEDB).

How the values were obtained:
Assay in all cases: IEDB peptide-MHC binding, purified MHC/competitive/radioactivity; filed as Kd, often an IC50 or EC50 that approximates it; ≥ and ≤ were set here for values at or beyond the usual limits of such assays
HLA-A*11:01 = biological target: HLA-A*11:01
HLA-A*68:01 = biological target: HLA-A*68:01
HLA-A*31:01 = biological target: HLA-A*31:01
HLA-A*33:01 = biological target: HLA-A*33:01
HLA-A*03:01 = biological target: HLA-A*03:01
[1] = source organism: Vaccinia virus WR
[2] = source organism: SARS coronavirus Tor2
[3] = source organism: Mammarenavirus brazilense
[4] = source organism: Dengue virus 2 Jamaica/1409/1983
[5] = source organism: Dengue virus 4 Philippines/H241/1956
[6] = source organism: Lymphocytic choriomeningitis virus (strain Armstrong)
[7] = source organism: Mammarenavirus juninense
[8] = source organism: Mammarenavirus machupoense
[9] = source organism: Dengue virus 1 Brazil/97-11/1997
[10] = source organism: Dengue virus 3 Martinique/1243/1999
[11] = source organism: Dengue virus 2 Peru/IQT2913/1996
[12] = source organism: Dengue virus 3 Sri Lanka/1266/2000
[13] = source organism: Dengue virus 4 Dominica/814669/1981

Work on KLVKSLVDK yielded a Kd (HLA-A*11:01; [1]) of 0.0734 µM, a Kd (HLA-A*68:01; [1]) of no less than 77.7 µM and a Kd (HLA-A*31:01; [1]) of no less than 41.3 µM. The Kd (HLA-A*33:01; [1]) was no less than 77.7 µM and the Kd (HLA-A*03:01; [1]) was 0.0345 µM.

QQWIQFMMSR gave a Kd (HLA-A*11:01; [2]) of 7.8 µM, a Kd (HLA-A*68:01; [2]) of 6.64 µM and a Kd (HLA-A*31:01; [2]) of 0.127 µM. For the same sequence, the Kd (HLA-A*33:01; [2]) was 1.45 µM and the Kd (HLA-A*03:01; [2]) was 12.5 µM.

Work on LFHGGEPIK yielded a Kd (HLA-A*11:01; [1]) of 0.766 µM, a Kd (HLA-A*68:01; [1]) of 5.11 µM and a Kd (HLA-A*31:01; [1]) of no less than 77.9 µM. It also gave a Kd (HLA-A*33:01; [1]) of no less than 77.7 µM and a Kd (HLA-A*03:01; [1]) of 0.719 µM.

With YTNEIIGYK the Kd (HLA-A*11:01; [2]) was 0.00256 µM, the Kd (HLA-A*68:01; [2]) was 0.00224 µM and the Kd (HLA-A*31:01; [2]) was 0.937 µM. It also gave a Kd (HLA-A*33:01; [2]) of 0.414 µM and a Kd (HLA-A*03:01; [2]) of 0.00497 µM.

NTNLIKCSDH was tested, and the Kd (HLA-A*31:01; [3]) was no less than 37.5 µM and the Kd (HLA-A*33:01; [3]) was no less than 60.3 µM.

For ILKRWGTIK, the Kd (HLA-A*03:01; [4]) was 0.0142 µM.

NSSAVVDNK gave a Kd (HLA-A*11:01; [1]) of 0.195 µM, a Kd (HLA-A*68:01; [1]) of 0.0441 µM and a Kd (HLA-A*31:01; [1]) of no less than 30.6 µM. The Kd (HLA-A*33:01; [1]) was no less than 77.7 µM and the Kd (HLA-A*03:01; [1]) was 8.23 µM.

For FVNEKYCIIK, the Kd (HLA-A*11:01; [1]) was 0.226 µM, the Kd (HLA-A*68:01; [1]) was 0.275 µM and the Kd (HLA-A*31:01; [1]) was 6.15 µM. It also gave a Kd (HLA-A*33:01; [1]) of 3.92 µM and a Kd (HLA-A*03:01; [1]) of no less than 48.6 µM.

With DAKNDDWKKY the Kd (HLA-A*11:01; [1]) was no less than 69.8 µM, the Kd (HLA-A*68:01; [1]) was no less than 70.2 µM and the Kd (HLA-A*31:01; [1]) was no less than 70 µM. The Kd (HLA-A*33:01; [1]) was no less than 70 µM and the Kd (HLA-A*03:01; [1]) was no less than 70.1 µM.

For RVYADPMALK, the Kd (HLA-A*11:01; [5]) was 0.0903 µM, the Kd (HLA-A*68:01; [5]) was 0.0161 µM and the Kd (HLA-A*03:01; [5]) was 0.00698 µM.

With NACSANNSHH the Kd (HLA-A*11:01; [6]) was no less than 69.7 µM, the Kd (HLA-A*68:01; [6]) was 4.71 µM and the Kd (HLA-A*31:01; [6]) was no less than 70 µM. The Kd (HLA-A*33:01; [6]) was no less than 70 µM and the Kd (HLA-A*03:01; [6]) was no less than 70 µM.

QVYFESFVR showed a Kd (HLA-A*11:01; [6]) of 0.0548 µM.

With MVGLLSNSPH the Kd (HLA-A*11:01; [7]) was no less than 41.4 µM, the Kd (HLA-A*68:01; [7]) was 0.661 µM and the Kd (HLA-A*31:01; [7]) was 2.89 µM. For the same sequence, the Kd (HLA-A*33:01; [7]) was 4.28 µM and the Kd (HLA-A*03:01; [7]) was no less than 30 µM.

In the case of SSTCSAVTDR, the Kd (HLA-A*11:01; [1]) is reported as 0.173 µM, the Kd (HLA-A*68:01; [1]) is reported as 0.0874 µM and the Kd (HLA-A*31:01; [1]) is reported as 0.123 µM. The Kd (HLA-A*33:01; [1]) was 0.708 µM and the Kd (HLA-A*03:01; [1]) was 11.4 µM.

For ELGFNYPEY, the Kd (HLA-A*11:01; [1]) was no less than 66.7 µM, the Kd (HLA-A*68:01; [1]) was 8.85 µM and the Kd (HLA-A*31:01; [1]) was no less than 77.9 µM. It also gave a Kd (HLA-A*33:01; [1]) of no less than 77.7 µM and a Kd (HLA-A*03:01; [1]) of no less than 39.7 µM.

Sequence YLLVKWIRK has a Kd (HLA-A*11:01; [1]) of 0.084 µM, a Kd (HLA-A*68:01; [1]) of no less than 35.2 µM and a Kd (HLA-A*31:01; [1]) of 0.285 µM. It also gave a Kd (HLA-A*33:01; [1]) of 5.2 µM and a Kd (HLA-A*03:01; [1]) of 0.0075 µM.

TAVAKCNQNH was tested, and the Kd (HLA-A*11:01; [8]) was no less than 69.7 µM, the Kd (HLA-A*68:01; [8]) was no less than 70.1 µM and the Kd (HLA-A*31:01; [8]) was no less than 70 µM. It also gave a Kd (HLA-A*33:01; [8]) of no less than 68.8 µM and a Kd (HLA-A*03:01; [8]) of no less than 70 µM.

For ENKAWLVHR, the Kd (HLA-A*33:01; source organism: Dengue virus 2 16681-PDK53) was 0.007 µM.

Sequence PLHILASNKK has a Kd (HLA-A*11:01; [1]) of 3.42 µM, a Kd (HLA-A*68:01; [1]) of no less than 21.9 µM and a Kd (HLA-A*31:01; [1]) of 7.7 µM. The Kd (HLA-A*33:01; [1]) was no less than 70 µM and the Kd (HLA-A*03:01; [1]) was 1.48 µM.

VLAFITFLR was tested, and the Kd (HLA-A*68:01; [5]) was 0.00839 µM, the Kd (HLA-A*31:01; [5]) was 0.00441 µM and the Kd (HLA-A*33:01; [5]) was 0.0704 µM. For the same sequence, the Kd (HLA-A*03:01; [5]) was 0.267 µM.

Work on HYDQENPYR yielded a Kd (HLA-A*33:01; [5]) of 7.87 µM.

In the case of YFWQKKKQR, the Kd (HLA-A*31:01; [9]) is reported as 2.22 µM and the Kd (HLA-A*33:01; [9]) is reported as 0.0982 µM.

With KATLTEGVYR the Kd (HLA-A*31:01; [5]) was 0.076 µM.

Sequence FFLMVLLIPE has a Kd (HLA-A*33:01; [9]) of 0.208 µM.

For KIFSEVTPK, the Kd (HLA-A*03:01; source organism: Homo sapiens) was 0.01 µM.

LTVCYVLTGR showed a Kd (HLA-A*68:01; [4]) of 0.00643 µM.

EATQLATLR showed a Kd (HLA-A*68:01; [10]) of 0.0159 µM and a Kd (HLA-A*33:01; [10]) of 0.0947 µM.

AIKVLRGFKK gave a Kd (HLA-A*11:01; [9]) of 0.817 µM.

Sequence KKNGAIKVLR has a Kd (HLA-A*31:01; [9]) of no less than 70 µM.

TVMAFHLTTR gave a Kd (HLA-A*11:01; [11]) of 0.108 µM, a Kd (HLA-A*68:01; [11]) of 0.0122 µM and a Kd (HLA-A*31:01; [11]) of 0.00157 µM. For the same sequence, the Kd (HLA-A*33:01; [11]) was 0.00812 µM.

In the case of ATVVIGTSK, the Kd (HLA-A*68:01; [2]) is reported as 0.101 µM, the Kd (HLA-A*31:01; [2]) is reported as 1.32 µM and the Kd (HLA-A*33:01; [2]) is reported as no less than 77.7 µM.

For EITAEWLWR, the Kd (HLA-A*68:01; [12]) was 0.114 µM and the Kd (HLA-A*33:01; [12]) was 0.0114 µM.

In the case of FVCRRTFVDR, the Kd (HLA-A*31:01; [9]) is reported as no less than 70 µM and the Kd (HLA-A*33:01; [9]) is reported as 0.0652 µM.

Work on GTVMDIISRK yielded a Kd (HLA-A*11:01; [10]) of 0.0476 µM.

With RNKKPRLCTR the Kd (HLA-A*31:01; [10]) was 0.0926 µM.

TMPLVMAWR showed a Kd (HLA-A*31:01; [5]) of 0.00848 µM and a Kd (HLA-A*33:01; [5]) of 0.00643 µM.

In the case of DVISRRDQR, the Kd (HLA-A*68:01; [9]) is reported as 0.0663 µM and the Kd (HLA-A*33:01; [9]) is reported as 0.0682 µM.

With AAQRRGRIGR the Kd (HLA-A*31:01; [5]) was 0.00216 µM.

FTDPASIAAR was tested, and the Kd (HLA-A*68:01; [4]) was 0.0256 µM and the Kd (HLA-A*33:01; [4]) was 0.125 µM.

MTLMKGASR showed a Kd (HLA-A*68:01; [13]) of 0.0523 µM, a Kd (HLA-A*31:01; [13]) of 0.0305 µM and a Kd (HLA-A*33:01; [13]) of 0.0116 µM.

For EMGANFRADR, the Kd (HLA-A*31:01; [9]) was no less than 70 µM.

Sequence NKKPRLCTR has a Kd (HLA-A*33:01; [10]) of 3.91 µM.

With TIIGRRLQR the Kd (HLA-A*68:01; [5]) was 0.617 µM and the Kd (HLA-A*33:01; [5]) was 0.416 µM.

GVLARWGTFK showed a Kd (HLA-A*11:01; [10]) of 0.0744 µM and a Kd (HLA-A*03:01; [10]) of 0.00523 µM.

CTSQILLMR was tested, and the Kd (HLA-A*68:01; [9]) was 0.0167 µM.

With GSLITCAKFK the Kd (HLA-A*11:01; source organism: Dengue virus 1 Nauru/West Pac/1974) was 0.244 µM.

Work on MSTYGWNIVK yielded a Kd (HLA-A*68:01; [10]) of 0.00617 µM.

Work on RVPSHLAHR yielded a Kd (HLA-A*31:01; [10]) of 0.000845 µM.

Sequence KNKAWMVHR has a Kd (HLA-A*31:01; [10]) of 0.00118 µM.

QMWTLMYFHR was tested, and the Kd (HLA-A*31:01; [4]) was 0.00186 µM and the Kd (HLA-A*33:01; [4]) was 0.0353 µM.

Sequence DSALTLHWFR has a Kd (HLA-A*68:01; [5]) of 0.0131 µM and a Kd (HLA-A*33:01; [5]) of 0.00327 µM.

In the case of LTYQNKVVR, the Kd (HLA-A*68:01; [4]) is reported as 0.0461 µM and the Kd (HLA-A*31:01; [4]) is reported as 0.0113 µM.

For HLKCRLRMDK, the Kd (HLA-A*03:01; [4]) was 0.119 µM.

GFKNGSRHSH showed a Kd (HLA-A*11:01; [7]) of no less than 42.7 µM, a Kd (HLA-A*68:01; [7]) of 2.96 µM and a Kd (HLA-A*31:01; [7]) of 0.882 µM. For the same sequence, the Kd (HLA-A*03:01; [7]) was 14.4 µM.

SLRETACLGK was tested, and the Kd (HLA-A*03:01; [9]) was 0.00806 µM.
